Source: PMC9882600, “Asymmetric gating of a human hetero-pentameric glycine receptor” (Research Square, 2023)

Key:
[1] = molecular target: the molecule itself; assay: cryo-EM structure; α1emβem GlyR co-expressed and purified as a complex, 6 mg/ml in 20 mM Tris pH 8.0, 200 mM NaCl, 0.06% digitonin; vitrified without ligand (apo) or after 1 h with 2 mM glycine on ice (open, expanded-open, desensitized classes); ~3 mM fluorinated fos-choline 8 added before freezing
[2] = molecular target: human glycine receptor β subunit, cryo-EM construct βem (human) (UniProt P48167); assay: as above
Chain of human glycine receptor β subunit, cryo-EM construct βem (human) (P48167 23-497): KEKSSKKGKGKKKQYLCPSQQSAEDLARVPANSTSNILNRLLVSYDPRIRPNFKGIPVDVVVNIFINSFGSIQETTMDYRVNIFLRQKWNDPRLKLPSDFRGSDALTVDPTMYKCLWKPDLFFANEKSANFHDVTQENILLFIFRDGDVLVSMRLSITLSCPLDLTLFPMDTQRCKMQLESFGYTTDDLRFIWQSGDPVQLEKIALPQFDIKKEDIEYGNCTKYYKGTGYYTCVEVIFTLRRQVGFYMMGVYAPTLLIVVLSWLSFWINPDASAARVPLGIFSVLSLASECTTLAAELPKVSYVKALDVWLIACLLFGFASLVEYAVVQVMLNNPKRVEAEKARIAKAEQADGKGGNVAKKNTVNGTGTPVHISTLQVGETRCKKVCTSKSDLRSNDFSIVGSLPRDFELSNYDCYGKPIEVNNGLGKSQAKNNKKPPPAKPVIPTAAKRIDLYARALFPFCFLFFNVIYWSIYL

B1: human glycine receptor α1 subunit, cryo-EM construct α1em (receptor)
chain: ARSAPKPMSPSDFLDKLMGRTSGYDARIRPNFKGPPVNVSCNIFINSFGSIAETTMDYRVNIFLRQQWNDPRLAYNEYPDDSLDLDPSMLDSIWKPDLFFANEKGAHFHEITTDNKLLRISRNGNVLYSIRITLTLACPMDLKNFPMDVQTCIMQLESFGYTMNDLIFEWQEQGAVQVADGLTLPQFILKEEKDLRYCTKHYNTGKFTCIEARFHLERQMGYYLIQMYIPSLLIVILSWISFWINMDAAPARVGLGITTVLTMTTQSSGSRASLPKVSYVKAIDIWMAVCLLFVFSALLEYAAVNFVSRQHKELLGSSGEEMRKLFIQRAKKIDKISRIGFPMAFLIFNMFYWIIYKIVRREDVHNQ
notes: glycine receptor α1 subunit, human, NCBI NP_001139512.1; residues before the M3/M4 loop stretch R316-P381 that was replaced by GSSG; the lists of unbuilt residues begin at A1 and give 367 aa in total; linker that replaces the M3/M4 loop residues R316-P381; residues after the replaced M3/M4 loop stretch, to Q429 (last residue named in the lists of unbuilt residues); Four copies stand in the …
**Q.** Does B1 bind [1]?
**A.** binds

**Q.** What about the stoichiometry N [2] of the same binder?
**A.** 4 α1:β
